Assay [1] addresses T1, human B7-H3 antigen (Octet) (human, UniProt Q5ZPR3 29-466, limits assumed).
T1 construct: Soluble antigen in the BLI assay
T1 sequence: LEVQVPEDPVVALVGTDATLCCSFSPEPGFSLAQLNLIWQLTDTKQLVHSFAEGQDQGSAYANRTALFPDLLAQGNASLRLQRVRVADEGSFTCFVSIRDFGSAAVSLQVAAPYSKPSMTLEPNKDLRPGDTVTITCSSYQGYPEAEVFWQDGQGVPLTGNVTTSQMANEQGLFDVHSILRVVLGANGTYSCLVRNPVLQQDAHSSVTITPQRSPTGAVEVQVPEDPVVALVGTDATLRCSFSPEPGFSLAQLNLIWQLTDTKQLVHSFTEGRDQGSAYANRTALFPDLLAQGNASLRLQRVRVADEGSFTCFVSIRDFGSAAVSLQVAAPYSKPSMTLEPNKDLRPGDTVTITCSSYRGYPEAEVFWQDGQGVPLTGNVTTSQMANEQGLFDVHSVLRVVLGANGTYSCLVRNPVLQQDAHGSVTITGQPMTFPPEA
As to the kind of experiment: BLI (Octet QK), antibody captured on AHC biosensor, B7-H3 antigen 30-0.24 nM, 1:1 global fit. A general note: BLI is a label-free optical method that tracks binding on a fibre tip over time.

The target in assay [2] is T2, rat B7-H3 (#80380-R08H, Sino) (rat, UniProt Q7TPB4 29-244).
T2 construct: Bought protein; also called rat B7-H3 antigen
T2 sequence (looked up): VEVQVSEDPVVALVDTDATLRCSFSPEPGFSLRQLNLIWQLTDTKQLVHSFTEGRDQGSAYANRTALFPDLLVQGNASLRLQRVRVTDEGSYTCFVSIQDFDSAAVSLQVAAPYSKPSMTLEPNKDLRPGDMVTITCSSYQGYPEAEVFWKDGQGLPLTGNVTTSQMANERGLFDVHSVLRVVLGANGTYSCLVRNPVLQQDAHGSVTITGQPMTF
As to the kind of experiment: ELISA on coated Rat B7H3, OD450nm. On the technique in general: ELISA stands for enzyme-linked immunosorbent assay.

Assay [3] concerns the target T3, Mouse B7-H3 (#50973-M08H, Sino) (mouse, UniProt Q8VE98 29-244).
T3 construct: Bought protein; also called mouse B7-H3 antigen
T3 sequence (looked up): T2 sequence (looked up) with R33A, A62S, D131N, L156V, M214L
As to the kind of experiment: ELISA on coated Mouse B7H3, OD450nm.

Substitutions are numbered along the chain they refer to.

B1: CD276-040F10 (antibody, V domains shown)
VH: QVQLVESGAEVKKPGASVKLSCKASGYTFSSYWMHWVRQAPGQRLEWMGEINPGNGHTNYNEKFKSRVTITVDKSASTAYMELSSLRSEDTAVYYCVADPRRPKVPTALFVYWGQGTLVTVSS
VL: DIQMTQSPSSVSASVGDRVTISCRASQGIGTWLAWYQQKPGKAPRLLIYAASSLDSGVPSRFSASGSGTDFTLTISSLQPEDFATYYCQQAINFPITFGQGTRLEIK
notes: Converted from scFv to IgG form
B1: binding in assay [1] was characterised by a dissociation constant (Kd) of 0.06 nM.

B2: CD276-039C05 (antibody, V domains shown)
VH: QVQLVESGAEVKKPGSSVKVSCKASGGTFSSYAISWVRQAPGQGLEWMGRIIPILGIANYAQKFQGRVTITADKSTSTAYMELSSLRSEDTAVYYCANGGDSSSWYTFDYWGQGTLITVSS
VL: DIQMTQSPSTLSASVGDKLTLTCRASQSISRWLAWYQQKPGKAPKLLIYKASYLQTGVPSRFSGSGTGTEFTLTISSLQPDDFATYYCQQYNTFPLTFAGGTKVEIK
notes: Converted from scFv to IgG form; Parent of the _LS_ light-chain variants
Take B2: the binding result in assay [2] and in assay [3] was “binds” each time.

These data come from patent US20220348663A1 (Y BIOLOGICS, published 2022).
